Measured values reported in the nanobody polyreactivity screen of Harvey et al. (2022).

Assay: yeast display, Sf9 membrane polyspecificity reagent, FACS + sequencing; frameworks hold sequencing errors
Summary of the method: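 Genes from sorted yeast were amplified by colony PCR, read by MiSeq 2 × 250 sequencing and filtered on CDR length. These cells carried a synthetic nanobody library in Saccharomyces cerevisiae BJ5465 and were sorted by FACS into low and high (top ~1%) gates on anti-HA and streptavidin fluorescence. Polyreactivity is labelled according to the gate of origin.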

Row | Sequence | polyreactivity (PSR sort gate)
1 | QVQLVESGGGLVQAGGSLRLSCAASGFTFSSYAMGWYRQAPGKERELVAAITISGGRTYYADSVKGRFTISRDNAKNTVYLQMNSLKPEDTAVYYCAALYVEGQNHYGYWGQGTQVTVSS | high polyreactivity
2 | QVQLVESGGGLVQAGGSLRLSCAASGFTFSSYAMGWYRQAPGKERELVARISSGSSTNYADSVKGRFTISRDNAKNTVYLQMNSLKPEDTAVYYCAARYTARRQSYGYWGQGTQVTVSS | high polyreactivity
3 | QVQLVESGGGLVQAGGSLRLSCAASGFTFSTYAMGWYRQAPGKEREFVAAISRGGTRTYYADSVKGRFTISRDNAKNTVYLQMTSLKPEDTAVYYCAARSKARNGYDYWGQGTQVTVSS | high polyreactivity
4 | QVQLVESGGGLVQAGGSLRLSCAASGFTFSTYAMGWYRQAPGKERELVAAISGSGGRTYYADSVKGRFKISRDNAKNTVYLQMNSLKPEDTAVYYCAALTYSTVLGFDYWGQGTQVTVSS | high polyreactivity
5 | QVQLVESGGGLVQAGGSLRLSCAASGFTFSWYAMGWYRPAPGKERELVAAISWDGDSTYYADSVKGRFTISRDNAKNTVYLQMNSLIPEDTAVYYCAADFYYYWDGYDYWGQGTQVTVSS | high polyreactivity
6 | QVQLVESGGGLVQAGGSLRLSCAASGFTFSWYAMGWYRQAPGKERELVAAISRRGGSTYYADSVKGRFTISRDIAKNTVYLQMNSLKPEDTAVYYCNAALTYDYNYWGQGTQVTVSS | high polyreactivity
7 | QVQLVESGGGLVQAGGSLRLSCAASGFTFSWYAMGWYRQAPGKERELVAAITSGGSTYYADSVKGRFTLSRDNAKNTVYLQMISLKPEDTAVYYCNKAFASIAPVWSGYDFWGQGTQVTVSS | low polyreactivity
8 | QVQLVESGGGLVQAGGSLRLSCAASGFTFSYYAMGWYRQAPGHEREFVAAIIWNGTSTYYADSVKGRFTISRDNAKNTVYLQMNSLKPEDTAVYYCAAYDVHDYDYWGQGTQVTVSS | high polyreactivity
9 | QVQLVESGGGLVQAGGSLRLSCAASGFTFSYYAMGWYRQAPGKERELVAAISFGGSTYYADSVKGRFTISRDNAKNTVYLQMNSLKPEDTAVYYCAVYGDSYWGAYYYSDGYWGQGTQVTVSS | low polyreactivity
10 | QVQLVESGGGLVQAGGSLRLSCAASGFTFSYYAMGWYRQAPGKERELVAAISWSGTATYYADSVKGRFTISRDNAKNTVYLQMNSLKPEDTAVYYCAAGYSASGKVDYRGQGTQVTVSS | high polyreactivity
11 | QVQLVESGGGLVQAGGSLRLSCAASGFTFSYYAMGWYRQAPGKERELVAAITSSGARTYYADSVKGRFTISRDNAKNTVYFQMNSLKPEDTAVYYCAAEVFRTRTWEYYYWGQGTQVTVSS | high polyreactivity
12 | QVQLVESGGGLVQAGGSLRLSCAASGFTFSYYAMGWYRQAPGKERELVASISRSGNTYYADSVKGRFTISRDNAKNTVYLQMNSLKPEDTAVYYCAADQVYASTHVWGYDYWGQGTQVTVSS | high polyreactivity
13 | QVQLVESGGGLVQAGGSLRLSCAASGFTFSYYAMGWYRQAPRKERELVAAISGGGGTNYADSVKGRFTISRDNAKNTVYLQMNSLKPEDTAVYYCATDQFTQPSHRRDYWGQGTQVTVSS | low polyreactivity
14 | QVQLVESGGGLVQAGGSLRLSCAASGFTFSYYDMGWYRQAPGKERELVAAITQSGGSTYYADSVKGRFTISRDNAKNTVYLQMNSLKPEDTEVFYCAALTYRWSARDYWGQGTQVTVSS | high polyreactivity
15 | QVQLVESGGGLVQAGGSLRLSCAASGFTFTAYAMGWYRQAPGKERELVAAISYRGGRTNYAYSVKGRFTISRDYAKYTVYLQMNSLKPEDTAVYYCAARPRISTREMDYWGQGTQVTVSS | high polyreactivity
16 | QVQLVESGGGLVQAGGSLRLSCAASGFTFTAYDMGWYRQAPGKERELVAAISGSGGTTYYADSVKGRFTISRDNAKNTVYLQMNSLKPEDTAVYYCAVDVPSPGGYDSWGQGTQVTVSS | low polyreactivity

Row | Sequence | polyreactivity (PSR sort gate)
17 | QVQLVESGGGLVQAGGSLRLSCAASGFTFTENVMGWYRQAPGKEREFVAAITYIGGRTYYADSVKGRFTISRDNAKNTVYLQMNSLKPEDTAVYYCAADWAYYVASYLYYTFAYWGQGTQVTVSS | low polyreactivity
18 | QVQLVESGGGLVQAGGSLRLSCAASGFTFTPYGMGWYRQAPGKERELVAAITWNGGRTYYADSVKGRFTISRDNAKNTVYLQMNSLKPEDTAVYYCAAVAWSWQKRGYWGQGTQVTVSS | high polyreactivity
19 | QVQLVESGGGLVQAGGSLRLSCAASGFTFTRNAMGWYRQAPGKERELVAAISSSAGSTSYADSVKGRFTISRDNAKNPVYLQMNRLKPEDTAVYYCATEGSYYSWVGKVGYRYQYHYWGQGTQVTVSS | high polyreactivity
20 | QVQLVESGGGLVQAGGSLRLSCAASGFTFTRYAMGWYRPAPGKERELVAAISSRGGSTNYADSVKGRFTISRDNAKNTVYLQMNSLKPEDTAVYYCAAVYYRLRYEYDYWGQGTQVTVSS | high polyreactivity
21 | QVQLVESGGGLVQAGGSLRLSCAASGFTFTRYAMGWYRQAPGKERELVAAISRIGGSTYYADSVKGRFTISRDNAKNTVYLQMNSLKPEDTAVYYCAASKVPSYDYWGQGTQVTVSS | high polyreactivity
22 | QVQLVESGGGLVQAGGSLRLSCAASGFTFTRYAMGWYRQAPGKERELVAAISRRGGSTYYADSVKGRFTISRDNAKNTVYLQMNSLKPEDTAVYYCAKDAGSRTVREFGYWGQGTQVTVSS | high polyreactivity
23 | QVQLVESGGGLVQAGGSLRLSCAASGFTFTRYAMGWYRQAPGKERELVASISTSGGRTYYADSVKGRFTISRDNAKNTVYLQMNSLKPEDTAVYYCAASWNTQSRGWQYDYWGQGTQVTVSS | low polyreactivity
24 | QVQLVESGGGLVQAGGSLRLSCAASGFTFTTNAMGWYRQAPGKERELVAAISFSGGTTYYADSVKGRFTISRDNAKNTVYLQMNSLKPEDTAVYYCPAQPGQAWWSTEHDDYWGQGTQVTVSS | low polyreactivity
25 | QVQLVESGGGLVQAGGSLRLSCAASGFTFTYNAMGWDRQAPGKERELVAAISWSGGSTRYADSVKGRFTISRDNAKKTVYFQMNSLKPEDTGVYYFNKYTYRGRTGEINYWGQGTQVTVSS | high polyreactivity
26 | QVQLVESGGGLVQAGGSLRLSCAASGFTFTYYALGGYRQAPGKERELVARIRGRSGSTYYADSVKGRFTISRDNAKNTVYLQMNSLKPEDTAVYYCNADFNRTVAGTPEVDYWGQGTQVTVSS | high polyreactivity
27 | QVQLVESGGGLVQAGGSLRLSCAASGFTFTYYAMGWYRHAPGKERELVAAITNSGGTTYYADSVKGRFTISRDNAKNTVYLQMNSLKPEDTAVYYCAAVPYYVLARSFYRYGYWGQGTQVTVSS | low polyreactivity
28 | QVQLVESGGGLVQAGGSLRLSCAASGFTFTYYAMGWYRQAPGKERELVAGITRSGGSTYYADSVKGRFTISRDNAKNTVYLHMNSLKPEDTAVYYCAAVGSLYYYRYDYWGQGTQVTVSS | high polyreactivity
29 | QVQLVESGGGLVQAGGSLRLSCAASGFTFTYYAMGWYRQAPGTERELVAAISWRGTSTFYADSVKGRFTISRDNAKNTVYLQMNSLKPEDTAVYYCAAVGQWGYGYWGLGTQVTVSS | high polyreactivity
30 | QVQLVESGGGLVQAGGSLRLSCAASGFTFTYYVMGWYRQAPGKERELVAAISVSGGSTYYADSVKGRFTITRDNAKNTVYLQMNSLKPEDTAVYYCAARSPFYSYTPGYEYWGQGTQVTVSS | high polyreactivity
31 | QVQLVESGGGLVQAGGSLRLSCAASGFTFVAYAMGWYRQAPGKERELVAAISKSGGNTYYADSVKGRFTISRDNAKNTVYLQMNSLKPEDTAVYYCAAPRRYAWGQVNYWGQGTQVTVSS | high polyreactivity
32 | QVQLVESGGGLVQAGGSLRLSCAASGFTFVAYAMGWYRQAPGKERELVAAISRRGGTTYYADSVKGRFTISRDNAKNTVYLQMNSLKPEDTAVYYCNARGFPGKFGYWGQGTQVTVSS | high polyreactivity
